Results on 24 variants are retold here after IntAct's records for PubMed 35512704.

B1: Speckle-type POZ protein (Homo sapiens), O43791 (parent)
chain: MSRVPSPPPPAEMSSGPVAESWCYTQIKVVKFSYMWTINNFSFCREEMGEVIKSSTFSSGANDKLKWCLRVNPKGLDEESKDYLSLYLLLVSCPKSEVRAKFKFSILNAKGEETKAMESQRAYRFVQGKDWGFKKFIRRDFLLDEANGLLPDDKLTLFCEVSVVQDSVNISGQNTMNMVKVPECRLADELGGLWENSRFTDCCLCVAGQEFQAHKAILAARSPVFSAMFEHEMEESKKNRVEINDVEPEVFKEMMCFIYTGKAPNLDKMADDLLAAADKYALERLKVMCEDALCSNLSVENAAEILILADLHSADQLKTQAVDFINYHASDVLETSGWKSMVVSHPHLVAEAYRSLASAQCPFLGPPRKRLKQS
partner: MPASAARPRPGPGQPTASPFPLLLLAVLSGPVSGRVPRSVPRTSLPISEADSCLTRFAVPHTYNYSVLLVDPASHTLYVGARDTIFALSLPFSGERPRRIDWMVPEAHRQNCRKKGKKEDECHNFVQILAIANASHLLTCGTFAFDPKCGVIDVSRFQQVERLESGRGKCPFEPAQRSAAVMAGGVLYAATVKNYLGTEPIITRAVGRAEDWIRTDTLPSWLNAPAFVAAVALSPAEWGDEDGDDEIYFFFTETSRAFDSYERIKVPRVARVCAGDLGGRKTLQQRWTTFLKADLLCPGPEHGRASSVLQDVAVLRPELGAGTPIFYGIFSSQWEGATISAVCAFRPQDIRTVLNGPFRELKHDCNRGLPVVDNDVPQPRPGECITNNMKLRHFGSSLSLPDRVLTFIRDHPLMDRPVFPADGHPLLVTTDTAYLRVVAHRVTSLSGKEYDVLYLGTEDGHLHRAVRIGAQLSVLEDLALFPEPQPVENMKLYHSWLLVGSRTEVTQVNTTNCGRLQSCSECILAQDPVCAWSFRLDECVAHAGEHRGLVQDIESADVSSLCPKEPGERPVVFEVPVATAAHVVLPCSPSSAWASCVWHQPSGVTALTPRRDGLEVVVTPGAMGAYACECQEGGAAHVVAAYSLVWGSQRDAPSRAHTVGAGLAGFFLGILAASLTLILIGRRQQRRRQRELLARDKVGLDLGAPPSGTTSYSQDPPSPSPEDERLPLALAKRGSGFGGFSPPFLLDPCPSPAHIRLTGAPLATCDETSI
B2: Speckle-type POZ protein (Homo sapiens), O43791 (parent)
chain: B1 chain
partner: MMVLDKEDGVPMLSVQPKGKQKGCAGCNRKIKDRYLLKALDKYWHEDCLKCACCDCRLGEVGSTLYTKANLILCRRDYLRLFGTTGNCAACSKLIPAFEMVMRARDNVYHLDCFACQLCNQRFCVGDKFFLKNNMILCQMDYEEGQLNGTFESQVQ
B3: Speckle-type POZ protein (Homo sapiens), O43791 (parent)
chain: B1 chain
partner: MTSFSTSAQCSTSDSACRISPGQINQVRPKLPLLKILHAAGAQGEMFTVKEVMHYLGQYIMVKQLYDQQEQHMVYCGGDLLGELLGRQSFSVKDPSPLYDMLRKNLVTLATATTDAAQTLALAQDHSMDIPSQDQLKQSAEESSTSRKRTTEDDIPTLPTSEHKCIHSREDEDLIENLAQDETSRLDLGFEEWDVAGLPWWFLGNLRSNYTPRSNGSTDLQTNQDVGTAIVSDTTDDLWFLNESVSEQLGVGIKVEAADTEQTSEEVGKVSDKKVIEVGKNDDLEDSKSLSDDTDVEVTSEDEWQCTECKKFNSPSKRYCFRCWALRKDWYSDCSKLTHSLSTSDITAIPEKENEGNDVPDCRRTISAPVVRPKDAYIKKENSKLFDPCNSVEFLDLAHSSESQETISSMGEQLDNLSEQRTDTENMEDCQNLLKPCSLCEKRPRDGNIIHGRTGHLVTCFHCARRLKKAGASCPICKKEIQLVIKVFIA
B4: Speckle-type POZ protein (Homo sapiens), O43791 (parent)
chain: B1 chain
partner: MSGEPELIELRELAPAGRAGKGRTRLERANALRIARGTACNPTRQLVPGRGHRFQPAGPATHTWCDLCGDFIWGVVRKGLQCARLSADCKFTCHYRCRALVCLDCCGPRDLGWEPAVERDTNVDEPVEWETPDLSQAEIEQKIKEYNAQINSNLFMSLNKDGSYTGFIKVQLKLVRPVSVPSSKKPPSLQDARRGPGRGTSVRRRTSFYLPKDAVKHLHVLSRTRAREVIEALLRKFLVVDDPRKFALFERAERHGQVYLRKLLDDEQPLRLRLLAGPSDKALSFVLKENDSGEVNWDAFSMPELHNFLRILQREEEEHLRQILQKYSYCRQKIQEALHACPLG
B5: Speckle-type POZ protein (Homo sapiens), O43791 (parent)
chain: B1 chain
partner: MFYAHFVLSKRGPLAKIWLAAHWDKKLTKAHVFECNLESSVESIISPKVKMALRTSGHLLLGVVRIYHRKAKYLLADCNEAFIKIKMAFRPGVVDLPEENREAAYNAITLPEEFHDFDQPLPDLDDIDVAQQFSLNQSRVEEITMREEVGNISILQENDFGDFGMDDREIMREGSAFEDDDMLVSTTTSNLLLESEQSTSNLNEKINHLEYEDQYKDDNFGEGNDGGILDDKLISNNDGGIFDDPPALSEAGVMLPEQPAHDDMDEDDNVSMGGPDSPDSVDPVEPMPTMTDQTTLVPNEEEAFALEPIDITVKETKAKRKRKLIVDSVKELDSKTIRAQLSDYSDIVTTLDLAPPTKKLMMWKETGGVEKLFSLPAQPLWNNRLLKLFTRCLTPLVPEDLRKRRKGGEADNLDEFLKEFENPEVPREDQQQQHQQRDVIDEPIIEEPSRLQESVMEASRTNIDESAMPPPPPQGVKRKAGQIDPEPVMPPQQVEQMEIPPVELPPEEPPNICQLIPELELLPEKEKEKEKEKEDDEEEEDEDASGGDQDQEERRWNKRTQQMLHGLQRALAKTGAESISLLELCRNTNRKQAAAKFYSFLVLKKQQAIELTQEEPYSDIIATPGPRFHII
B6: Speckle-type POZ protein (Homo sapiens), O43791 (parent)
chain: B1 chain
partner: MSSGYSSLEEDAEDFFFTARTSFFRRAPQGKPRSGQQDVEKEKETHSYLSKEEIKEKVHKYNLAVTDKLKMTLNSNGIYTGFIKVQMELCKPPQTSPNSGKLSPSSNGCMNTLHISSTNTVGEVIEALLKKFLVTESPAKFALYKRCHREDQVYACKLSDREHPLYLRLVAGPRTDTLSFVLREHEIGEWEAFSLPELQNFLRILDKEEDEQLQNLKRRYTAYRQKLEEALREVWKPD
B7: Speckle-type POZ protein (Homo sapiens), O43791 (parent)
chain: B1 chain
partner: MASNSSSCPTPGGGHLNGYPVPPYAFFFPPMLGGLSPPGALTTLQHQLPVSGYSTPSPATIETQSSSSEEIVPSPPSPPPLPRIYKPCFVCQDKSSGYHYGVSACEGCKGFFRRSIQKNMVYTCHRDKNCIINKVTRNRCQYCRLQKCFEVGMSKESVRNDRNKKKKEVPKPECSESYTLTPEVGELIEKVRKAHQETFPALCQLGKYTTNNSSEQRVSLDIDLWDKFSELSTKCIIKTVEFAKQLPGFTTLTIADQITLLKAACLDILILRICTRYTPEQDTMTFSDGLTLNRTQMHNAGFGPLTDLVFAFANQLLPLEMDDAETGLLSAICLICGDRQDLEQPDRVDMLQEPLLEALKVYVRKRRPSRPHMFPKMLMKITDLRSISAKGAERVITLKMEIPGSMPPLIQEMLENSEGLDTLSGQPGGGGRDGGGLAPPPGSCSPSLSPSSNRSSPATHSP

The variants in the first experiment derive from B1. The following applies: with sem4f_human SEMA4F.
For Y87C, the “effect of a mutation on the interaction” value is “with no effect”.

In the next experiment the parent is B1. The following applies: with sem4f_human SEMA4F. This is another data set of the same source.
As for F133L, the “effect of a mutation on the interaction” value was “with no effect”.

In another experiment the parent is B1. Particulars: with sem4f_human SEMA4F. The source holds these as a separate data set.
For the variant F133V, the “effect of a mutation on the interaction” value is reported as “with no effect”.

Variants of B2 are the subject of the next experiment. Particulars: with rbtn1_human LMO1, P25800.
For F133V, the “effect of a mutation on the interaction” value is on record as “with no effect”.

Another experiment covers variants of B2. The following applies: with rbtn1_human LMO1, P25800. The source holds these as a separate data set.
With F133L, the “effect of a mutation on the interaction” value is “with no effect”.

The next experiment covers variants of B2. Particulars: with rbtn1_human LMO1, P25800. This is another data set of the same source.
Turning to Y87C, the “effect of a mutation on the interaction” value is given as “with no effect”.

In another experiment the parent is B2. Particulars: with rbtn1_human LMO1, P25800. This is another data set of the same source.
Take F102C: the “effect of a mutation on the interaction” value is on record as “with no effect”.

The variants in another experiment derive from B3. Particulars: with mdm4_human MDM4, O15151.
Consider F133L, for which the “effect of a mutation on the interaction” value is given as “with no effect”.

Variants of B3 are the subject of another experiment. Particulars: with mdm4_human MDM4, O15151. This is another data set of the same source.
For F133V, the “effect of a mutation on the interaction” value is reported as “with no effect”.

Variants of B3 are the subject of a further experiment. The following applies: with mdm4_human MDM4, O15151. The source holds these as a separate data set.
Regarding Y87C, the “effect of a mutation on the interaction” value is “with no effect”.

The variants in another experiment derive from B3. The following applies: with mdm4_human MDM4, O15151. This is another data set of the same source.
Take F102C: the “effect of a mutation on the interaction” value is on record as “with no effect”.

Variants of B4 are the subject of another experiment. Particulars: with rasf1_human RASSF1, Q9NS23.
Turning to Y87C, the “effect of a mutation on the interaction” value is “with no effect”.

Variants of B4 are the subject of the next experiment. The following applies: with rasf1_human RASSF1, Q9NS23. The source holds these as a separate data set.
Regarding F102C, the “effect of a mutation on the interaction” value is given as “with no effect”.

Variants of B4 are the subject of the next experiment. Particulars: with rasf1_human RASSF1, Q9NS23. This is another data set of the same source.
In the case of F133L, the “effect of a mutation on the interaction” value is on record as “with no effect”.

The variants in the next experiment derive from B4. Particulars: with rasf1_human RASSF1, Q9NS23. The source holds these as a separate data set.
Turning to F133V, the “effect of a mutation on the interaction” value is given as “with no effect”.

In another experiment the parent is B5. The following applies: with rad21_human RAD21, O60216.
Take F133L: the “effect of a mutation on the interaction” value is recorded as “with no effect”.

Variants of B5 are the subject of another experiment. Particulars: with rad21_human RAD21, O60216. The source holds these as a separate data set.
Regarding F133V, the “effect of a mutation on the interaction” value is given as “with no effect”.

The variants in the next experiment derive from B5. Particulars: with rad21_human RAD21, O60216. This is another data set of the same source.
With F102C, the “effect of a mutation on the interaction” value is recorded as “with no effect”.

The variants in another experiment derive from B5. The following applies: with rad21_human RAD21, O60216. The source holds these as a separate data set.
On to Y87C, for which the “effect of a mutation on the interaction” value was “with no effect”.

The variants in a further experiment derive from B6. The following applies: with rasf3_human RASSF3, Q86WH2.
As to F133V, the “effect of a mutation on the interaction” value is given as “with no effect”.

Variants of B6 are the subject of a further experiment. The following applies: with rasf3_human RASSF3, Q86WH2. This is another data set of the same source.
Regarding F133L, the “effect of a mutation on the interaction” value is “with no effect”.

Another experiment covers variants of B6. Particulars: with rasf3_human RASSF3, Q86WH2. This is another data set of the same source.
For the variant F102C, the “effect of a mutation on the interaction” value was “with no effect”.

The variants in a further experiment derive from B6. Particulars: with rasf3_human RASSF3, Q86WH2. The source holds these as a separate data set.
Regarding Y87C, the “effect of a mutation on the interaction” value is “with no effect”.

Variants of B7 are the subject of another experiment. Particulars: with rara_human RARA.
Regarding F133L, the “effect of a mutation on the interaction” value is “with no effect”.
